Results as given in patent US20260201045A1 (Regeneron, published 2026).

Key:
[1] = molecular target: T1, human CNTFR extracellular domain (Q23-V105)/mCNTFR (G106-S342) expressed with a C-terminal … (human/mouse chimera, UniProt P26992 23-342); assay: SPR Biacore S200, antigen captured by anti-myc, 100 nM mAb injected, 25 C
T1 construct: Human/mouse chimeric CNTFR domain protein; also called hCNTFR (Q23-V105)/mCNTFR (G106-S342).mmh; hCNTFR (Q23-V105)_mCNTFR (G106-S342).mmh
T1 chain: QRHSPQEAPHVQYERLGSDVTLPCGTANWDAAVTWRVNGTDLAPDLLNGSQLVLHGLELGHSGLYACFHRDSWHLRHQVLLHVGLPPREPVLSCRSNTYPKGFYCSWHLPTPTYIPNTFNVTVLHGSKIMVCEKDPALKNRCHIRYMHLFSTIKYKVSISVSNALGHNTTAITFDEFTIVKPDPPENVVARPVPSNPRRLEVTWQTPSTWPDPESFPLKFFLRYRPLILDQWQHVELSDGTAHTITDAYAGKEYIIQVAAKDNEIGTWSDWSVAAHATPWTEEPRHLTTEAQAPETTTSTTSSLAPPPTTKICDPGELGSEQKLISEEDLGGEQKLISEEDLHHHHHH

[2] = molecular target: T2, human CNTFR extracellular domain (Q23-D205)/mCNTFR (P206-S342) expressed with a C-terminal … (human/mouse chimera, UniProt P26992 23-342); assay: as above
T2 construct: Human/mouse chimeric CNTFR domain protein; also called hCNTFR (Q23-D205)/mCNTFR (P206-S342).mmh; hCNTFR (Q23-D205)_mCNTFR(P206-S342).mmh

[3] = molecular target: T3, human CNTFR extracellular domain expressed with a C-terminal myc-myc-hexahistidine tag (human, UniProt P26992 23-342); assay: as above
T3 construct: The entry holds the tag as well; also called hCNTFR-mmh; hCNTFR.mmh

[4] = molecular target: T4, full length human CNTFR (hCNTFR, amino acids 1-372, UniProtKB/Swiss-Prot Accession #P26992) (human, UniProt P26992 23-342); assay: flow cytometry on HEK293/hCNTFR cells
T4 construct: also called HEK293/hCNTFR; CNTFR endogenously expressed on IMR-32/STAT3-luc cells
T4 sequence: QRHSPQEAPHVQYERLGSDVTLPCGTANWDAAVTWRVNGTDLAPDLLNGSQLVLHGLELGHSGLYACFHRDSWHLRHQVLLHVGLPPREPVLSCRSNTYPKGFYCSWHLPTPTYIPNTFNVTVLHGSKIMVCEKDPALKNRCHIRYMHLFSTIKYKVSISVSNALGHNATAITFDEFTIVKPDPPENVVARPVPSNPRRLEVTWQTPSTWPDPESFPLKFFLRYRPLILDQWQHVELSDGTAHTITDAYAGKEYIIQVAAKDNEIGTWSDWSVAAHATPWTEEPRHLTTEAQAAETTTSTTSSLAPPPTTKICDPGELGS
Description: (§1) To assess binding of the anti-CNTFR antibodies to CNTFR receptors expressed on the cell surface, each of the HEK293/CNTFR cells listed above or HEK293 parental cells were diluted to 5×10⁵ cells/well in 96-well v-bottom plates. […] Cells were fixed using BD CytoFix™ (Becton Dickinson, #554655), filtered, and then analyzed on IQuePlus® Flow Cytometer (Intellicyt®). Geometric Mean Fluorescent Intensity (MFI) values were calculated by Forecyt Software and plotted in GraphPad Prism using a 4-parameter logistic equation over the 8-point dose-response curve to obtain EC₅₀ values. […] The secondary only condition was excluded from the EC₅₀ calculation.

[5] = molecular target: T5, human CNTFR extracellular domain expressed with a C-terminal mouse IgG2a Fc tag (human); assay: SPR Biacore 4000, mAb captured by anti-human Fc, antigen injected, 37 C
T5 construct: also called hCNTFR-mFc; dimeric hCNTFR-mFc
T5 chain: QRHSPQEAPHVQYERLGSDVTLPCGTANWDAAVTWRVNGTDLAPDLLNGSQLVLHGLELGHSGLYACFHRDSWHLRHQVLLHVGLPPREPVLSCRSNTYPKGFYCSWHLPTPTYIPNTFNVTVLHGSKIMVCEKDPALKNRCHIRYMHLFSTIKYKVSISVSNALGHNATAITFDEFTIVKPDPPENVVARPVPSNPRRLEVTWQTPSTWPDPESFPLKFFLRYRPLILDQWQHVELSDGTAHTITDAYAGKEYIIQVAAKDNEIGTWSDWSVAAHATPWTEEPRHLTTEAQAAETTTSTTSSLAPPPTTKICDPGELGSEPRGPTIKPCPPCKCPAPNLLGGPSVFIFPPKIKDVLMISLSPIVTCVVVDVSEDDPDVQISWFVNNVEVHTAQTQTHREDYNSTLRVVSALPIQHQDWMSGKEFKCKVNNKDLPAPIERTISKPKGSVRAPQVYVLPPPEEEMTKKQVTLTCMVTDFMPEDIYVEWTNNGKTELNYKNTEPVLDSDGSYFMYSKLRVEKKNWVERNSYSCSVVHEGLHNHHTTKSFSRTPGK
Description: (§2) Equilibrium dissociation constants (KD) for CNTFR binding to purified anti-CNTFR monoclonal antibodies were determined using a real-time surface plasmon resonance (SPR) based Biacore 4000 biosensor. All binding studies were performed in 10 mM HEPES, 150 mM NaCl, 3 mM EDTA, and 0.05% v/v surfactant Tween-20, pH 7.4 (HBS-ET) running buffer at 25° C. and 37° C. The Biacore CM4 sensor surface was first derivatized by amine coupling with a monoclonal mouse anti-human Fc antibody (REGN2567) to capture anti-CNTFR monoclonal antibodies. Different concentrations of CNTFR reagents, human CNTFR extracellular domain expressed with a C-terminal myc-myc-hexahistidine tag (hCNTFR-mmh; SEQ ID NO:42), monkey CNTFR extracellular domain expressed with a C-terminal myc-myc-hexahistidine tag (mfCNTFR-mmh; SEQ ID NO:43), mouse CNTFR extracellular domain expressed with a C-terminal myc-myc-hexahistidine tag (mCNTFR-mmh; SEQ ID NO:44), and human CNTFR extracellular domain expressed with a C-terminal mouse IgG2a Fc tag (hCNTFR-mFc; SEQ ID NO: 45), at concentrations ranging from 6.25 nM to 100 nM in a series of 4-fold dilutions prepared in HBS-ET running buffer were injected at a flow rate of 30 μL/min for 2.5 minutes. The dissociation of different CNTFR reagents bound to anti-CNTFR monoclonal antibodies was monitored for 10 minutes in HBS-ET running buffer. At the end of each cycle, the anti-CNTFR monoclonal antibodies capture surface was regenerated using a 12 sec injection of 20 mM H3PO4. The association rate (ka) and dissociation rate (kd) were determined by fitting the real-time specific binding sensorgrams to a 1:1 binding model with mass transport limitation using Scrubber 2.0c curve-fitting software. Binding dissociation equilibrium constant (KD) and dissociative half-life (t½) were calculated from the kinetic rates as: […]

[6] = molecular target: T6, full length mouse CNTFR (mCNTFR, amino acids 1-372, UniProtKB/Swiss-Prot Accession #088507) (mouse, UniProt O88507 23-342); assay: flow cytometry on HEK293/mCNTFR cells
T6 construct: whole, on cells; also called HEK293/mCNTFR
T6 sequence (looked up): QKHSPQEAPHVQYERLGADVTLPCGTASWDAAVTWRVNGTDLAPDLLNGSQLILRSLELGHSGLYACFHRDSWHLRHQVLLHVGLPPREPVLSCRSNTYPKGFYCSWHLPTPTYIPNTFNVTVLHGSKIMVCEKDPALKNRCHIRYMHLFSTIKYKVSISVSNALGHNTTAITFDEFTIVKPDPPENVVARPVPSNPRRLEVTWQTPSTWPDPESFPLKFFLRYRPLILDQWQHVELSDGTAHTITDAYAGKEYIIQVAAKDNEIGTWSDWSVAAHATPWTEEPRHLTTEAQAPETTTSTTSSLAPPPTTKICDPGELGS
Description: as §1

[7] = molecular target: T7, mouse CNTFR extracellular domain expressed with a C-terminal myc-myc-hexahistidine tag (mouse, UniProt O88507 23-342); assay: SPR Biacore 4000, mAb captured by anti-human Fc, antigen injected, 25 C
T7 construct: The entry holds the tag as well; also called mCNTFR-mmh
Description: as §2

[8] = molecular target: T5, human CNTFR extracellular domain …; assay: as above
Description: as §2

[9] = molecular target: T1, human CNTFR extracellular domain …; assay: SPR Biacore S200, antigen captured by anti-myc, mAb injected, 25 C

B1: mAb25311P2 (antibody, human IgG4 S228P, kappa, V domains shown)
VH: QVQLVESGGGVVQPGRSLRLSCVASGFTFSTSVMHWVRQAPGKGLEWVANIWYDGINKFYVDSVKGRFTISRDNSKNTLYLQMNSLRAEDTAVYYCAREFWSAFDLWGQGTMVTVSS
VL: not shown
[1]
  100 nM mAb Bound (RU): 1 RU
[2]
  100 nM mAb Bound (RU): 89 RU
[3]
  100 nM mAb Bound (RU): 80 RU
[4]
  EC50: 4.33 nM
  Max. Fold Binding: 510 fold over secondary antibody alone
[5]
  Kd: 27.2 nM
  koff: 0.000784 s⁻¹
  kon: 28800 M⁻¹ s⁻¹
  t½: 15 min
[6]
  binding result: no binding (tested: 375 nM)
[7]
  binding result: no binding (tested: 100 nM)
[8]
  Kd: 7.22 nM
  koff: 0.000125 s⁻¹
  kon: 17300 M⁻¹ s⁻¹
  t½: 93 min
[9]
  binding result: no binding (tested: 100 nM)
